A short description of this series: protein stability index of a GFP-peptide fusion (yeast GPS) (PSI 1-4); higher = more stable; sorted into four equal gates, so the index is relative within each strain. The gist of the method:
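The protein stability index of a peptide was calculated by multiplying its read frequency in each gate by that gate's number and adding the products. The peptides were tiled 17-residue stretches of yeast proteins, fused downstream of GFP on a Cherry-expressing plasmid and carried in yeast as a pooled library. Mid-log cultures in leucine-free medium were sorted into four equal gates by GFP/Cherry ratio, and each gate's plasmids were PCR-amplified and Illumina-sequenced.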

± gives the uncertainty stated by the source.

On to GYFIINGSEKVLIAQER [RPB2], for which the protein stability index worked out at 3.14 ± 0.21 (doa10∆), 2.94 ± 0.17 (pdr5∆), 3.16 ± 0.18 (san1∆) and 2.15 ± 0.26 (ubr1∆).

For the sequence RAVANRTDATFIRVIGS [RPT1], the protein stability index turned out to be 3.22 ± 0.1 (doa10∆), 3.26 ± 0.069 (pdr5∆), 3.17 ± 0.082 (san1∆) and 3.09 ± 0.062 (ubr1∆).

In the case of AQGTKFRISLGLPVGAI [RPL23A], the protein stability index was 1.94 ± 0.1 (doa10∆), 1.84 ± 0.063 (pdr5∆), 1.42 ± 0.17 (san1∆) and 1.92 ± 0.11 (ubr1∆).

On to ILVPDLYHLVIMKFQSL [ECM29], for which the protein stability index was 1.28 ± 0.081 (doa10∆), 1.3 ± 0.086 (pdr5∆), 1.12 ± 0.15 (san1∆) and 1.38 ± 0.063 (ubr1∆).

MDKKILLNINGSRKVAG [SMX2] yielded a protein stability index (doa10∆) of 1.57 ± 0.06, a protein stability index (pdr5∆) of 1.84 ± 0.066, a protein stability index (san1∆) of 1.81 ± 0.09 and a protein stability index (ubr1∆) of 2.11 ± 0.047.

In the case of LRNWEELNIIPRDLLRV [PRP28], the protein stability index is, setting by setting: (doa10∆) 1.09 ± 0.068; (pdr5∆) 1.35 ± 0.061; (san1∆) 1.39 ± 0.21; (ubr1∆) 1.07 ± 0.048.

As for LWNLNAYRTDVIQALGG [PRP8], the protein stability index was 2.17 ± 0.055 (doa10∆), 2.16 ± 0.05 (pdr5∆), 1.88 ± 0.088 (san1∆) and 1.93 ± 0.041 (ubr1∆).

Sequence FRVNNASINTSATVKTS [ECM29] gave a protein stability index (san1∆) of 1.95 ± 0.17.

In the case of IRFVCLSNCLANARDFG [BRR2], the protein stability index is 2.09 ± 0.053 (doa10∆), 1.81 ± 0.052 (pdr5∆), 1.72 ± 0.074 (san1∆) and 2.24 ± 0.044 (ubr1∆).

Regarding RGEIREIEQVCKQVHDK [MED7], the protein stability index was 3.06 ± 0.077 (doa10∆), 3.27 ± 0.046 (pdr5∆), 2.8 ± 0.062 (san1∆) and 2.87 ± 0.073 (ubr1∆).

Take NQIWNIALNLASKKFGK [SSN2]: the protein stability index by setting is: (doa10∆) 2.7 ± 0.13; (pdr5∆) 2.88 ± 0.052; (san1∆) 3.06 ± 0.067; (ubr1∆) 3.08 ± 0.056.

For the sequence ELKPVSLDNKTLDDLVT [YJL041W/NSP1], the protein stability index was 3.12 ± 0.057 (doa10∆), 3.04 ± 0.063 (pdr5∆), 3.09 ± 0.067 (san1∆) and 3.19 ± 0.042 (ubr1∆).

Take SNIIHDESDTISFRSNL [SNF6]: the protein stability index stood at 2.79 ± 0.1 (doa10∆), 2.68 ± 0.079 (pdr5∆), 2.85 ± 0.098 (san1∆) and 2.7 ± 0.067 (ubr1∆).

Consider ADKVYTKENLEVSGENV [QCR2], for which the protein stability index came out at 3.44 ± 0.1 (doa10∆), 3.59 ± 0.072 (pdr5∆), 3.2 ± 0.092 (san1∆) and 3.28 ± 0.052 (ubr1∆).

On to TSNASMNTTLGSIGSRK [YAR002W/NUP60], for which the protein stability index came out at 3.32 ± 0.1 (doa10∆), 3.27 ± 0.11 (pdr5∆), 3.37 ± 0.063 (san1∆) and 3.26 ± 0.085 (ubr1∆).

As for MMQDPQMQQMAKQFGMG [SRP54], the protein stability index stood at 3.15 ± 0.039 (doa10∆), 2.93 ± 0.043 (pdr5∆), 3.03 ± 0.031 (san1∆) and 2.75 ± 0.027 (ubr1∆).

For the sequence ITKMLASDESLLRYGGA [RPN2], the protein stability index was 3.28 ± 0.11 (doa10∆), 3.41 ± 0.17 (pdr5∆), 3.23 ± 0.11 (san1∆) and 3.82 ± 0.22 (ubr1∆).

Consider TYSTPKRPYESSRLDAE [RPS9A], for which the protein stability index is, setting by setting: (doa10∆) 2.97 ± 0.073; (pdr5∆) 3.02 ± 0.062; (san1∆) 2.93 ± 0.082; (ubr1∆) 2.87 ± 0.064.

For MDMNEIEDKENSESTTQ [RPT5], the protein stability index reads like this: (doa10∆) 3.04 ± 0.15; (pdr5∆) 3.25 ± 0.12; (san1∆) 3.16 ± 0.12; (ubr1∆) 3.21 ± 0.098.

In the case of DQLAVSPEQIDASPDSL [YCS4], the protein stability index reads like this: (doa10∆) 1.62 ± 0.071; (pdr5∆) 1.89 ± 0.081; (san1∆) 1.65 ± 0.1; (ubr1∆) 1.86 ± 0.06.

Consider MTTFYKCVNCGHRWKEN [RPC11], for which the protein stability index came to 2.82 ± 0.16 (doa10∆), 2.66 ± 0.071 (pdr5∆), 2.22 ± 0.15 (san1∆) and 2.74 ± 0.071 (ubr1∆).

In the case of KDKTKNISAEIIRHEKE [SMC4], the protein stability index turned out to be 2.58 ± 0.12 (doa10∆), 3.02 ± 0.12 (pdr5∆), 2.99 ± 0.086 (san1∆) and 2.91 ± 0.1 (ubr1∆).

Turning to EDVVAISSRTFGQRAVL [RPS0A], the protein stability index was 3.3 ± 0.11 (doa10∆), 3.03 ± 0.056 (pdr5∆), 3.02 ± 0.085 (san1∆) and 3.1 ± 0.047 (ubr1∆).

Turning to VSAAEDESLIRELYKYV [PRP28], the protein stability index worked out at 3.27 ± 0.11 (doa10∆), 3.27 ± 0.13 (pdr5∆), 2.95 ± 0.084 (san1∆) and 2.94 ± 0.098 (ubr1∆).

As for EGQIIQRSNISTAIKSL [CDC53], the protein stability index by setting is: (doa10∆) 1.55 ± 0.056; (pdr5∆) 2.33 ± 0.099; (san1∆) 2.46 ± 0.16; (ubr1∆) 1.79 ± 0.079.

For ENMWPFSYQEVEFKLPK [CDC53], the protein stability index (doa10∆) turned out to be 1.83 ± 0.048, the protein stability index (pdr5∆) came to 2.19 ± 0.058, the protein stability index (san1∆) was 1.34 ± 0.076 and the protein stability index (ubr1∆) worked out at 2.47 ± 0.035.
